{
  "source": "patent US20240415930A1",
  "about": "“COMPOSITIONS AND METHODS FOR ENHANCING BRAIN PERFUSION” (Washington University, priority 2021, published 2024)",
  "molecules": {"B1": {"name": "macrophage colony stimulating factor (protein, UniProt P07141 33-552, looked up)", "Macrophage colony-stimulating …": "KEVSEHCSHMIGNGHLKVLQQLIDSQMETSCQIAFEFVDQEQLDDPVCYLKKAFFLVQDIIDETMRFKDNTPNANATERLQELSNNLNSCFTKDYEEQNKACVRTFHETPLQLLEKIKNFFNETKNLLEKDWNIFTKNCNNSFAKCSSRDVVTKPDCNCLYPKATPSSDPASASPHQPPAPSMAPLAGLAWDDSQRTEGSSLLPSELPLRIEDPGSAKQRPPRSTCQTLESTEQPNHGDRLTEDSQPHPSAGGPVPGVEDILESSLGTNWVLEEASGEASEGFLTQEAKFSPSTPVGGSIQAETDRPRALSASPFPKSTEDQKPVDITDRPLTEVNPMRPIGQTQNNTPEKTDGTSTLREDHQEPGSPHIATPNPQRVSNSATPVAQLLLPKSHSWGIVLPLGELEGKRSTRDRRSPAELEGGSASEGAARPVARFNSIPLTDTGHVEQHEGSSDPQIPESVFHLLVPGIILVLLTVGGLLFYKWKWRSHRDPQTLDSSVGRPEDSSLTQDEDRQVELPV"}},
  "tested_on": "perivascular macrophages (PVMs)",
  "test": "M-CSF treatment of aged mice: OVA tracer diffusion/coverage (CSF flow)",
  "type": "in vivo",
  "experimental": "FIG. 3U is a schematic diagram summarizing an experimental design to determine the effect of M-CSF treatment on CSF flow in aged mice.\nFIG. 7D is a schematic diagram summarizing an experimental design wherein old mice were treated with M-CSF (or aCSF as a control group). Six hours after treatment, mice received OVA via ICM injection, and brains were harvested one hour after OVA diffusion.\nFirst, it was observed that tracer diffusion in aged mice (24-month-old) was impaired compared to young/adult mice (3-month-old) (FIGS. 7A, 7B, 7C, 7D, 7E, and 7F).",
  "note": "“Also recorded” adds a separate entry of the source.",
  "data": [
    {"molecule": "B1", "values": [
      {"measurement": "OVA tracer diffusion/coverage through the brain", "setting": "aged (24-month-old) mice, OVA ICM six hours after ICM M-CSF, brains harvested one hour later, vs aCSF", "value": "improved tracer diffusion through the brain tissue; also recorded: increase in OVA diffusion/coverage compared to aCSF-treated mice; also recorded: improved perfusion of the brains in older mice"},
      {"measurement": "state of perivascular macrophages", "setting": "older mice, ICM injection", "value": "rejuvenated the perivascular macrophages"}
    ]}
  ]
}
